Like-named read-outs stand apart in the source and are kept apart here. One block for each molecule: values may come before it.
Legend:
[1] = tested on: MBIO-301-derived split enzyme; assay: Bioluminescence emission of synthetic luciferin substrates with MBIO-301-derived split enzyme (FRB:FKBP, rapamycin); format: biochemical; settings: 1 nM MBIO-557, 1 nM MBIO-563, 10 μM Substrate, 100 nM Rapamycin
Protocol: The MBIO-301 enzyme was split into two components: MBIO-557 (Small portion) and MBIO-563 (Large portion). • MBIO-557 has the following sequence: NRVDEVRVYINGSGS (SEQ ID NO:2735) • MBIO-563 has the following sequence:
Bioluminescence emission of synthetic luciferin substrates was measured. The luciferin substrates were incubated with MBIO-301-derived split enzyme. The two-component MBIO-301 split luciferase enzyme was fused to the rapamycin inducible FRB:FKBP system and incubated with its complementary part at a 1:1 ratio. Each of the molecules was incubated with 1×PBS, 0.5% Propylene Glycol, 0.05% Anti-foam, 100 mM Imidazole, 10 mM Ascorbic Acid buffer, 100 nM Rapamycin and emission signal was measured using a Synergy H1 plate reader.
In-well concentrations: 1 nM MBIO-557 (EGFP-FRB-Small portion), 1 nM MBIO-563 (EGFP-FKBP-Large portion), 10 μM Substrate, 100 nM Rapamycin.

LuxSit = format: biochemical; settings: inclusion in assay buffer at pH8
Protocol: Assay buffers that increase and stabilize the signal output of luciferase assay were tested. Inclusion of Imidazole increased the brightness of LuxSit at pH8.
In-well concentrations were 185 pM of enzyme and 10 μM DTZ. […] In-well concentrations of DTZ was 10 μM.

[2] = Luciferase activity (brightness) of LuxSit-i variants; format: biochemical; settings: among variants derived from MBIO-2859, Table 13
[3] = Stability of LuxSit-i variants (yeast display protease resistance, static light scattering); format: physicochemical; settings: among variants derived from MBIO-2859, Table 13
Protocol: In certain aspects, these polypeptides have improved stability at high temperatures as compared to LuxSit-i. For example, these polypeptides are stable at higher temperatures as compared to LuxSit-i. Stability may be measured by enzymatic activity and/or protein misfolding measured over a period of time. In certain embodiments, stability may be measured using static light scattering (SLS).
A single saturation mutagenesis (SSM) was performed to evaluate by yeast display the effect of single mutations in the stability of LuxSit-i (SEQ ID NO:1). The SSM library was transformed into electrocompetent cells of the strain EBY100. Twenty million cells were labeled with anti-myc FITC antibody in order to detect protein expression on the yeast surface by measuring fluorescence emission. Cells were sorted using a Sony SH800 cell sorter and those showing protein expression (FITC signal) were collected and grown. DNA was extracted from the sorted cells using conventional DNA extraction conventional methods. The DNA library was sequenced using Nanopore technology. Single amino acid substitutions that increase protein stability are enriched after sorting.
(§1) Single saturation mutagenesis (SSM) was performed to evaluate (by yeast display) the effect of single mutations in the stability of LuxSit-i-i. The SSM library was transformed into electrocompetent cells of the strain EBY100. Twenty million cells were labeled with an anti-myc FITC antibody to detect protein expression on the yeast surface by measuring the emission of fluorescence by FITC. Yeast were incubated with a mixture of 3.5 uM trypsin and 1.4 uM chymotrypsin (1/729 dilution of the stock solution) at 25° C. for 15 min. Cells were sorted using a Sony SH800 cell sorter and those showing protein expression (FITC signal) after protease incubation were collected and grown. DNA was extracted from the sorted cells using conventional DNA extraction conventional methods. The DNA library was sequenced using Nanopore technology. Single amino acid substitutions that increase protein stability are enriched after sorting.
as §1, with “LuxSit-i.” for “LuxSit-i-i.”, “antibody in order” for “antibody”, “10” for “3.5”, “4” for “1.4”, “(1/243” for “(1/729”
as §1, with “LuxSit-i.” for “LuxSit-i-i.”, “antibody in order” for “antibody”, “15” for “3.5”, “6” for “1.4”, “(1/162” for “(1/729”, “sorting. […]” for “sorting.”

LgLux_4039 [4] = biological target: T1, LgLux_4039; assay: cell-based or functional assay
T1 chain: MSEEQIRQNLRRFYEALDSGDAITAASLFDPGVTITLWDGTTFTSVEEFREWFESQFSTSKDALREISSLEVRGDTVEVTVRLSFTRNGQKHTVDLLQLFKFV

MBIO-5335 = biological target: T2, MBIO-5335; assay: cell-based or functional assay
T2 chain: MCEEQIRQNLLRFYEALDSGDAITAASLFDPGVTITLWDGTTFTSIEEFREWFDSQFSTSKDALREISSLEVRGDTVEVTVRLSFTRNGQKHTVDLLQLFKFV

LgLux_4039 [5] = biological target: T1, LgLux_4039; assay: cell-based or functional assay
MBIO-5339 = biological target: T3, MBIO-5339; assay: cell-based or functional assay
T3 chain: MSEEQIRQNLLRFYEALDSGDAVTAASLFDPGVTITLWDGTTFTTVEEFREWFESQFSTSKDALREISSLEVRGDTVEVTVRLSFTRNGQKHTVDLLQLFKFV

MBIO-5341 = biological target: T4, MBIO-5341; assay: cell-based or functional assay
T4 chain: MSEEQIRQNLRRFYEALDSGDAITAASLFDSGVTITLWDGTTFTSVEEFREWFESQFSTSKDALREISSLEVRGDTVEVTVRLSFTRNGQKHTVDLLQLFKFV

[6] = biological target: T5, LgLux_4039 variant S19C (SEQ ID NO:2805); assay: cell-based or functional assay
T5 chain: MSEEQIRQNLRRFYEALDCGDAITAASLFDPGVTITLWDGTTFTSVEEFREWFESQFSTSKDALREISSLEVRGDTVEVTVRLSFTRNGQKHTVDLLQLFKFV

MBIO-5336 = biological target: T6, MBIO-5336; assay: cell-based or functional assay
T6 chain: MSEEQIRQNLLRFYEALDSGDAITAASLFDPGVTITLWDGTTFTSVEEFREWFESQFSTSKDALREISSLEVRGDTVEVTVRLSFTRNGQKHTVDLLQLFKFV

MBIO-5342 = biological target: T7, MBIO-5342; assay: cell-based or functional assay
T7 chain: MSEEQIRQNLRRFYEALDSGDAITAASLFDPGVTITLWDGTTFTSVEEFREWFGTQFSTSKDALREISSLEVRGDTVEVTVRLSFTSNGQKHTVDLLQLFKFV

MBIO-5340 = biological target: T8, MBIO-5340; assay: cell-based or functional assay
T8 chain: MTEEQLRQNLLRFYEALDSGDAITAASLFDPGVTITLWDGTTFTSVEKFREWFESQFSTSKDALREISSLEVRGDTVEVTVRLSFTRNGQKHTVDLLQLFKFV

MBIO-5337 = biological target: T9, MBIO-5337; assay: cell-based or functional assay
T9 chain: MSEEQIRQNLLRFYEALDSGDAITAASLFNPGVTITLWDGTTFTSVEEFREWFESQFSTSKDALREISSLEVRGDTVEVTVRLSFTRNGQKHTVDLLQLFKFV

MBIO-5338 = biological target: T10, MBIO-5338; assay: cell-based or functional assay
T10 chain: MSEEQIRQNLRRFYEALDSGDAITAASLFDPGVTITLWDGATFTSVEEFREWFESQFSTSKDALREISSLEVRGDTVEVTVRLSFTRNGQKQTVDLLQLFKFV

[7] = Luciferase activity of circularly permuted LuxSit-i variants; format: biochemical; settings: circularly permuted proteins; 5 nM protein, 10 μM DTZ
Protocol: FIG. 6A provides kinetic profile over one hour of circularly permuted LuxSit-i variants. Variants were diluted in PBS and combined 1:1 with DTZ substrate, resulting in final in-well concentrations of 5 nM protein/variant and 10 μM DTZ.
Variants were diluted in PBS and combined 1:1 with DTZ substrate, resulting in final in-well concentrations of 5 nM protein and 10 μM DTZ.

Molecule: O=c1c(Cc2ccccc2)nc2c(-c3ccccc3)[nH]c(-c3ccccc3)cn1-2 [DTZ, Diphenylterazine, reference compound]
Fold Change with Rapamycin Addition at Initial Read [1]: 58.4

Molecule: c1c[nH]cn1 [Imidazole]
brightness of LuxSit (LuxSit): increased

B1: MBIO-4039: MBIO-2859 variant (Table 13), SEQ ID NO: 2730 (protein)
chain: MSEEQIRQNLRRFYEALDSGDAITAASLFDPGVTITLWDGTTFTSVEEFREWFESQFSTSKDALREISSLEVRGDTVEVTVRLSFTRNGQKHTVDLLQLFKFVGNRVVAVRVYVNPTG
luciferase activity [2]: highest
stability [3]: most stable

B2: SmLux_4039 (peptide)
peptide: RVVAVRVYVNPTG
Baseline Signal (Normalized by expression) (LgLux_4039 [4]): 123000
Fold change upon Rap addition (LgLux_4039 [4]): 1.5 fold
Baseline Signal (Normalized by expression) (MBIO-5335): 23800
Fold change upon Rap addition (MBIO-5335): 1.9 fold
Baseline Signal (Normalized by expression) (LgLux_4039 [5]): 22100
Fold change upon Rap addition (LgLux_4039 [5]): 1.9 fold
Baseline Signal (Normalized by expression) (MBIO-5339): 28300
Fold change upon Rap addition (MBIO-5339): 1.9 fold
Baseline Signal (Normalized by expression) (MBIO-5341): 10400
Fold change upon Rap addition (MBIO-5341): 2.2 fold
Baseline Signal (Normalized by expression) [6]: 3670
Fold change upon Rap addition [6]: 2 fold
Baseline Signal (Normalized by expression) (MBIO-5336): 16400
Fold change upon Rap addition (MBIO-5336): 2.1 fold
Baseline Signal (Normalized by expression) (MBIO-5342): 3360
Fold change upon Rap addition (MBIO-5342): 2 fold
Baseline Signal (Normalized by expression) (MBIO-5340): 6670
Fold change upon Rap addition (MBIO-5340): 2.2 fold
Baseline Signal (Normalized by expression) (MBIO-5337): 14900
Fold change upon Rap addition (MBIO-5337): 2.1 fold
Baseline Signal (Normalized by expression) (MBIO-5338): 18900
Fold change upon Rap addition (MBIO-5338): 2.2 fold

B3: SEQ ID NO 2236: circularly permuted protein from MBIO-148, inpaint length 32 (protein)
chain: GQKHVVVLVHTFRFRGNRVTEVRVEIIPAPSLDEESIEARVAEARRLAEERLAELGDPPPSISEEQIRQFLRRFYEALDSGDADTAASLFHPGVTIHLWDGVTFTSREEFREWFERLFSTSKDAWREIVELRVRGDTVVVVVVLHFTLN
luciferase activity compared to SEQ ID NO:2600 [7]: similar

B4: SEQ ID NO 2227: circularly permuted protein from MBIO-148, inpaint length 32 (protein)
chain: GQKHVVVLVHTFRFRGNRVTEVEVEIIPCPSLDEASIAAAIAEAEALAAERLAELGAPPPSISEEQIRQFLRRFYEALDSGDADTAASLFHPGVTIHLWDGVTFTSREEFREWFERLFSTSKDAWREIVSLRVVGDTVVVVVVLHFTLN
luciferase activity compared to SEQ ID NO:2600 [7]: similar

The next lines start with the values.

Fold Change with Rapamycin Addition at Initial Read [1]: 116.8
Molecule: O=c1c(Cc2ccccc2)nc2c(-c3ccccc3)[nH]c(-c3ccc(O)cc3)cn1-2 [1c]

Fold Change with Rapamycin Addition at Initial Read [1]: 46.2
Molecule: O=c1c(Cc2ccccc2)nc2c(-c3ccc(F)cc3)[nH]c(-c3ccccc3)cn1-2 [2d]

Fold Change with Rapamycin Addition at Initial Read [1]: 17.1
Molecule: O=c1c(Cc2ccccc2)nc2c(-c3cccnc3)[nH]c(-c3ccccc3)cn1-2 [2p]

Reference: US20260250737A1, “Engineered Luciferases and Luciferin Substrates” (Monod Bio, Inc., priority 2023, published 2026)
